Experimental data published in US20150301024.

B1: recombinant human caspase 3 (protein)
chain: SGISLDNSYKMDYPEMGLCIIINNKNFHKSTGMTSRSGTDVDAANLRETFRNLKYEVRNKNDLTREEIVELMRDVSKEDHSKRSSFVCVLLSHGEEGIIFGTNGPVDLKKITNFFRGDRCRSLTGKPKLFIIQACRGTELDCGIETDSGVDDDMACHKIPVEADFLYAYSTAPGYYSWRNSKDGSWFIQSLCAMLKQYADKLEFMHILTRVNRKVATEFESFSFDATFHAKKQIPCIVSMLTKELYFYH
B2: recombinant human caspase 7 (protein)
chain: AKPDRSSFVPSLFSKKKKNVTMRSIKTTRDRVPTYQYNMNFEKLGKCIIINNKNFDKVTGMGVRNGTDKDAEALFKCFRSLGFDVIVYNDCSCAKMQDLLKKASEEDHTNAACFACILLSHGEENVIYGKDGVTPIKDLTAHFRGDRCKTLLEKPKLFFIQACRGTELDDGIQADSGPINDTDANPRYKIPVEADFLFAYSTVPGYYSWRSPGRGSWFVQALCSILEEHGKDLEIMQILTRVNDRVARHFESQSDDPHFHEKKQIPCVVSMLTKELYFSQ

Target: hXkr8-GFP (wild-type human Xkr8 fused to GFP at its C-terminus)

| Protein | cleavage of the GFP-fusion protein, Western blot with anti-GFP |
| --- | --- |
| B1 | caspase 3 and caspase 7 cleaved the wild-type but not 2DA mutant hXkr8 |
| B2 | caspase 3 and caspase 7 cleaved the wild-type but not 2DA mutant hXkr8 |
